Experiment: label from the status in PepcDB records

Row | Sequence | protein production
1 | MPRRRVETRRVDHDPGKRTLLLSPVLPLPTMRTCALALLTILLGAPAHGQSTDGPWTIDHVLTQRSLTDVDIGPDGNRVLWVKETPDPEADETTSDVYLTYRDDPHGDSTATLQLTRTGDNRAPRWSPDGEHIAFLSSREQEDAAESSGTQIWRLDPRGGAPEVITSVEHGVQGARWLDDDRLLFTAREQNTRYEQHLEQTEDDADVIEDTTLFRPVRLFTVHVGTGEVTRVTNNDHQIGEFAPSPNGSRVVYSLSDSPITADARNQPHQFLLNLNTGATTEIFDEQYVDPSNFQWTADGAGFYATDSYSSDPEHEGAGITKLYHYDLAARDYQEVPLEWGDKGVGYGGYTVVDGGLHVQLADGPTFEPRFYRKTSDGWAPAEVADERLEHASAFTAGPDGETVVFSHSTADTPPSYRVGTYREGALQRDETLTTLNENLDDLPIPRAEVVRWTGANGETVNGILHYPLDYDPDRAYPMMTVLHGGPSGVDLDAWSLGWTVYAPLLAQRDAFVFRPNYHGSGHHGLDFVESIKGKYYELEVPDIVSGIDSLAAAGVVDKDSLGVMGWSNGAILTTQLTIEHPELFQVAAPGAGDVNWTSDYGNCAFGVRFDRSYFKGAPWTYTEHYIEKSPLFEMPKVQTPTLIHHGTEDRAVPYEQGWEYYRALQQIGNAPVRFLSYPGEPHGLRQLSHQRRKVAEDLKWIDTYLFGETSMQERVSERLLADDAPLSLLETAEAPARTDGHYGVRANGTLVPETVTLGDTLTVGRFEVTRAQFRAYDADFEVPSGTAEYPAHGLAADRAQAYVDWLSEQTGRDYRLPTAAELAALKAARAGPSENTPAYWAGFTPTPDEYRRLRARLAQHPTEALLMPVGSRPAGHGPNGGGPLIYDVDGNVAEWARTADGIEAQNASALTLKDPKAETAPTPPRRVTGLRVVLDR | failed
2 | MHARDVMVSPVVTVGPNATVRQVAQILLERRISAVPVVDADNKVLGIVSEGDLLHRAESGTERSPSWWLRLLTGDAQLATDYVKSHSIKVQDVMTQEVATAAPETPLHEIAMLLEERQIKRVPIVNKEGQLVGIVSRANLLQTIASARPKLEISLPDSVIRKRFFEELRKQPWAHTFNVNATVQNGVVDIWGFAPSVAERTAIRVAAEAIPGVATVNDHLLETPAFVY | failed
3 | MSGDFDTIRDASSPDEVQLVRLLEEKIKSLQIEIENLRKELNYYKAEMEKMLSPPLIEAVVLDVLPDGRVLVRSSSGPNLVVNIASHIDQKLIKPGISVALNQRGSTILEVLPQKE | not failed
4 | MIREAQRSELPALLELWLESTIWGHPFIKSSYWRDCIPLVRDAYLANAQNWVWEEDGKLLGFVSIMEGRFLAAMFVAPKAVRRGIGKALMQYVQQRHPHLMLEVYQKNQPAIDFYHAQGFHIVDCAWQDETQLPTWIMSWPVVQTL | failed
5 | MAAPSGVPPMRVLEELGINLSPTGEVTETEAVAAEGAYYLEQVTITETSEDECEYEEIPDDNFSIPEGEEDLAKAIHMVDEQATDTHILEQQTILPSRHVMQEAIEDFLCNFLIKMGMTRTLDCFQAEWYELIQKTGSDLRTLGNVPDVYSQVMLLETENKNLKKDLKHFKQAAEKAKEDLLKTQKERDFHRMHHKRILQEKNKLIADLKGLKLHYASYEPTIRVLHEKHHALLKEKMLTSLERDRAVGKISGLQATLKNIDIGHIQVPVIKGSYETASILRELGDKAGHTYEKENSSEGPTQKNLREAREENGYKTKMKSERKDSEFPVDMQPDPNLTACTESLPTAKFDYRLNNIFRLHELPVSCICTHSVRDTMILCSEVRMWAGVGMDSGSISITPSGISRWISGCCDHPNRSWLLTSNGNRTLSLWELPEGKCTLTLQSLCQHHHFIWSCSWHICSRCAAQSSYRSTPKVWFLSVERCRYTLYGHTDSVNSIEFFPFSNTLLTASADKTLSVWDARTSHCQQSLYGHIRNIHIVKFTTPRLRGHILASCDSRGVIKLWDFRKLIPIVSIDVGPSPGNEVNFDPSGRVLAQASANGIIHLLDLKSGQIHKLVGHESEVHTVIFSHRAENLYSGGSDGTIRLWL | failed
6 | MSAPQAPSAPHSPPDVPVMQVIFGLMLAIMLGALEQSIVAVVLPEIALQLNGFEDMAWVISAYLVASTVVTPIYGKLSDVLGRRSVLTFSIVLFVLASIACAMATTMPMLIVARILQGLGGGGLISVSQATIADVVPLRERGKYQGYVSGVWAVASMAGPVIGGYLAHFLSWRWIFWINIPLGLIALIVVRRALRHLPVSGRKHRIDYLGALLFGGGLSGVLVFLTRMGQGHSPLEPQTIGLLAAGLIGLVLFIWQERRAVDPVIPLKMLAVPTVAICCLTLFLCFFQLIAMSVLLPLRFQVVGGAGADTAALRLVPLTLAIPFGAYASGRLMSWSGRYKPLQLAGCLVAPIAIVGLAFVPPQAVVPAALVMIVLGLSIGLQLPSGLVATQNSVPPQQVGIATALTAFSRLLGGAVGVAVLTTVLIALLRHSGMAVSDLHGGEDVLMSMFRRAMDAGDQGDAAAVREAAEHAFRLLFLMSAGVSLIAPFFVMRLKEKTLRGSPAGAAASAAAE | failed
7 | MSDISKLIGAIVGSDDPVIIEFVLNIINKSGNLQEFIRNIQKLDAGISYEDSIKMYNAFLGKQEEEKVRNKVKSSPLSQKINQVLKDDVNLDDPVVTEFVLSILNKSKSITEFQEQLNLMQSGLDNETIFKIYQIASPPVMKEEVSVLPSTKIPAKIEAKIEEEVQKIESLDPSPVLHKVYEGKVRNITTFGCFVQIFGTRMKNCDGLVHISEMSDQRTLDPHDVVRQGQHIFVEVIKIQNNGKISLSMKNIDQHSGEIRKRNTESVEDRGRSNDAHTSRNMKNKIKRRALTSPERWEIRQLIASGAASIDDYPELKDEIPINTSYLTAKRDDGSIVNGNTEKVDSKLEEQQRDETDEIDVELNTDDGPKFLKDQQVKGAKKYEMPKITKVPRGFMNRSAINGSNAIRDHREEKLRKKREIEQQIRKQQSFDDPTKNKKDSRNEIQMLKNQLIVTEWEKNRMNESISYGKRTSLPISAQRQTLPVYAMRSELIQAVRDNQFLVIVGETGSGKTTQITQYLDEEGFSNYGMIGCTQPRRVAAVSVAKRVAEEVGCKVGHDVGYTIRFEDVTGPDTRIKYMTDGMLQREALLDPEMSKYSVIMLDEAHERTVATDVLFALLKKAAIKRPELKVIVTSATLNSAKFSEYFLNCPIINIPGKTFPVEVLYSQTPQMDYIEAALDCVIDIHINEGPGDILVFLTGQEEIDSCCEILYDRVKTLGDSIGELLILPVYSALPSEIQSKIFEPTPKGSRKVVFATNIAETSITIDGIYYVVDPGFAKINIYNARAGIEQLIVSPISQAQANQRKGRAGRTGPGKCYRLYTESAFYNEMLENTVPEIQRQNLSHTILMLKAMGINDLLKFDFMDPPPKNLMLNALTELYHLQSLDDEGKLTNLGKEMSLFPMDPTLSRSLLSSVDNQCSDEIVTIISMLSVQNVFYRPKDRQLEADSKKAKFHHPYGDHLTLLNVYTRWQQANYSEQYCKTNFLHFRHLKRARDVKSQISMIFKKIGLKLISCHSDPDLIRKTFVSGFFMNAAKRDSQVGYKTINGGTEVGIHPSSSLYGKEYEYVMYHSIVLTSREYMSQVTSIEPQWLLEVAPHFYKAGDAESQSRKKAKIIPLHNKFAKDQNSWRLSSIRQSRERALGIKR | failed
8 | MKVLSYLKNFYLFLAIGAIMQASENMGSQHQKTDERVIYLAGGCFWGLEAYMERIYGVIDASSGYANGKTSSTNYEKLHESDHAESVKVIYDPKKISLDKLLRYYFKVVDPVSVNKQGNDVGRQYRTGIYYVNSADKEVIDHALKALQKEVKGKIAIEVEPLKNYVRAEEYHQDYLKKHPSGYCHIDLKKADEVIVDDDKYTKPSDEVLKKKLTKLQYEVTQNKHTEKPFENEYYNKEEEGIYVDITTGEPLFSSADKYDSGCGWPSFSKPINKDVVKYEDDESLNRKRIEVLSRIGKAHLGHVFNDGPKELGGLRYCINSAALRFIPLKDMEKEGYGEFIPYIKKGELKKYINDKKSH | failed
9 | MTGHRPACPPIPADVYTRLERRIGRCHLNQRLGIEHDFEARIFGQGRTFFHIENWNRLHTLLRRLLKLSLLYRPGQRAARRIEIRRNEFTLPHLPEAFEGYTLLHISDLHLDMAGDLPDALIRAIGQAGHYDACVLTGDFRARTFGPYRGAIDGLAQVRTHIDKPVFAILGNHDTIRMTPEIEDLGIGVLLNEAREIRQDGASIFLAGVDDPHYYRADNIEKAADPIPQGAVSILLSHSPELYRHAAYADFDIMLCGHTHGGQICLPGGIALTLNARCPRAFGRGYWRYHRMQGYTSAGSGVSILDIRLNCPPEITLHRLSRHRLSKGGCECGGGKGLEHHHHHH | not failed
10 | MLCIPATRDQTVSSHPAGTRQKKLFSQNDYLAPLPLPTGQQPVDSLNIIWRKNEVYIDIGCYSVGSAVMVIWPMMIMFISLAYGLNDIDLLWLGVIITGIPTLMLIHGLLRPTPPPVRFNRQRREVCVPRDNGEYWIVPWESVTAASTQCSSIGQAGRVTMGLLFIGFENPDAEASEDNKHFSMGFNCGGGETAMALWECMRSYMEIGPEVVPESRVGAMPYEKTQIGSIVTSLRKGDVFDVLHGLFFITILGTYLAEKLQNLKLSPPPDLEYPDIIEWSKSLPPEQWATPSPELLAALARQAATS | failed
11 | DPGERLYDLNMPAYVKFNYMAEREDELSLIKGTKVIVMEKCSDGWWRGSYNGQVGWFPSNYVTEEGDSPLGDHVG | not failed
12 | MDPEEEAFDAIRRFARAENINAASVTAIGAFATATLAFFDLKTQDYQEIPVAEQSEVLTLLGDITLDENGVPNPHLHVVLGFADGSTRGGHFLKGLVRPTLEVVIRETPAELRRSYNREFGIALIDPAKLEHHHHHH | not failed
13 | MAHGIPSQGKVTITVDEYSSNPTQAFTHYNINQSRFQPPHVHMVDPIPYDTPKPAGHTRFVCISDTHSRTDGIQMPYGDILLHTGDFTELGLPSEVKKFNDWLGNLPYEYKIVIAGNHELTFDKEFMADLVKQDYYRFPSVSKLKPEDFDNVQSLLTNSIYLQDSEVTVKGFRIYGAPWTPWFNGWGFNLPRGQSLLDKWNLIPEGIDILMTHGPPLGFRDWVPKELQRVGCVELLNTVQRRVRPKLHVFGGIHEGYGIMTDGYTTYINASTCTVSFQPTNPPIIFDLPNPQGS | failed
14 | MHATTLPSGIRAGRHERTPPPMTVQTGQTRQTRSRTWTRVTGTAAVVAAALTATVTPSVAAPAETPPASVTAAAADVGYDTWQRDCRAVMDAALPYLKERIAGSAPGEKQAVVLDIDNTSLETDFGFSYPQPANRPVLEVAEYAQEHGVALFFVTARPGIIEAPTEWNLAHAGYESSGLYVRGFLDLFKDVAEYKTEQRAEIESKGYTIIANIGNSASDLSGGHAEKTFKLPDYDGQLS | failed
15 | MPGVTVKDIDQHAVTKAVAVFLKKTGKLKVPDQMDIVKTAKFKELAPYDPDWFYVRCASILRHLYHRSPAGVGSITKIYGGRKRNGVHPSHFCRAADGAARKALQALEHARLVEKHPDGGRKLSSIGQRDLDRIANQIVFKQRDAAKQTGPIVISK | failed
16 | MKVNVSCSSVQTTIDILEENQGEDESILTLGQLRDRIATDNDVDVETMKLLHRGKFLQGADDVSLSTLNFKENDKIIVMGGKNALVDDAGFKMLMQYEKHNLSNLQKAYDLNLRDVADLERGFLEKPKQVEMGKKLEKKVKYFNEEAERHLETLDGMNIITETTPENQAKRNREKRKTLVNGIQTLLNQNDALLRRLQEYQSVLNGDIPE | not failed
17 | MQLPPIPDNELQRLSTLKALNILDTNAEERFDRITRLTRRIFALPICVVTLVDASRQWFKSCQGLEVTETSRDISFCGHAINHDGIFIVNDAQMDPRFHDNPLVTQSPHIRFYAGYPLTIRGEYRVGTLCLIGNEPREFSADDIETLTDLGQMVEAELLSISLNTLDPLTMISNRRGFEQLAFQSLASCRRTNSQAALVFFDLDFFKELNDSFGHRKGDQVLYDFAHLLMAAFRESDVIARLGGDEFVVLLSFVKIDAVHVAIERFQSLLEQYNQQHPQQPTLVSSIGVAHWSPELDINLEDLLDAADRAMYQDKAEHHLNKPE | failed

Reference: a protein production outcome set (Wang et al. 2014)
